Experimental data from article PMC3154279, “ADP-Ribosylation Factor 6 Mediates E-Cadherin Recovery by Chemical Chaperones” (PLoS ONE, 2011).

What was measured:
Assay in all cases: proximity ligation; Duolink PLA on methanol-fixed CHO cells stably expressing WT or mutant hE-cadherin, treated with medium or 2% DMSO for 24 h; antibody pairs against E-cadherin and PIP5K1C, p120 or β-catenin; spots per cell counted (BlobFinder), relative number of blobs per cell, n = 3
[1] = target: Type Iγ phosphatidylinositol phosphate kinase (PIPKIγ) (Chinese hamster (endogenous in CHO))
[2] = target: p120-catenin (Chinese hamster (endogenous in CHO))
[3] = target: T1, β-catenin (Chinese hamster (endogenous in CHO), UniProt G3H996 1-781); conditions: partners not purified
T1 construct: β-catenin, endogenous in CHO (Chinese hamster ovary) cells, detected with an anti-β-catenin antibody; source: endogenous, CHO cells, fixed
T1 sequence (looked up): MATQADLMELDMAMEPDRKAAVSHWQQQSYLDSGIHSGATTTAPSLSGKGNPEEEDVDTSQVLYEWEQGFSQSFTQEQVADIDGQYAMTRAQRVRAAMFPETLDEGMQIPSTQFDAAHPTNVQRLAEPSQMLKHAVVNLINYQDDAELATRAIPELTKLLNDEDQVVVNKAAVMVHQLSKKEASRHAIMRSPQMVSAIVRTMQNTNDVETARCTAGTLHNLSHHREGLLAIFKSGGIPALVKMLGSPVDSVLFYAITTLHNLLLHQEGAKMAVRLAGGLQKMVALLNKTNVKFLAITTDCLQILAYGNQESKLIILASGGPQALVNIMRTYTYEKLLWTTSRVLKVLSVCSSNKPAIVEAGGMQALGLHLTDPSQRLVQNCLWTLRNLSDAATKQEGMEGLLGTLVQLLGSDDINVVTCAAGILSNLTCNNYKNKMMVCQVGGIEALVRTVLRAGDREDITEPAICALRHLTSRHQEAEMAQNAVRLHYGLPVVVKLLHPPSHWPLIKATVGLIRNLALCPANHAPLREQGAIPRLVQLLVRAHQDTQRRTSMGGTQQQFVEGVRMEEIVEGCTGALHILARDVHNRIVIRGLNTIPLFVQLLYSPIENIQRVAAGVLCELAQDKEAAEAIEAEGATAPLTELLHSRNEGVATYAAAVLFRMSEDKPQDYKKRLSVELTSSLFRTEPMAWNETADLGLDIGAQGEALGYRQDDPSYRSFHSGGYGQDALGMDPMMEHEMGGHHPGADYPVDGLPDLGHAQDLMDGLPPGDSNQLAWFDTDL

B1: WT human E-cadherin (natural protein, UniProt P12830 155-882, looked up)
chain: DWVIPPISCPENEKGPFPKNLVQIKSNKDKEGKVFYSITGQGADTPPVGVFIIERETGWLKVTEPLDRERIATYTLFSHAVSSNGNAVEDPMEILITVTDQNDNKPEFTQEVFKGSVMEGALPGTSVMEVTATDADDDVNTYNAAIAYTILSQDPELPDKNMFTINRNTGVISVVTTGLDRESFPTYTLVVQAADLQGEGLSTTATAVITVTDTNDNPPIFNPTTYKGQVPENEANVVITTLKVTDADAPNTPAWEAVYTILNDDGGQFVVTTNPVNNDGILKTAKGLDFEAKQQYILHVAVTNVVPFEVSLTTSTATVTVDVLDVNEAPIFVPPEKRVEVSEDFGVGQEITSYTAQEPDTFMEQKITYRIWRDTANWLEINPDTGAISTRAELDREDFEHVKNSTYTALIIATDNGSPVATGTGTLLLILSDVNDNAPIPEPRTIFFCERNPKPQVINIIDADLPPNTSPFTAELTHGASANWTIQYNDPTQESIILKPKMALEVGDYKINLKLMDNQNKDQVTTLEVSVCDCEGAAGVCRKAQPVEAGLQIPAILGILGGILALLILILLLLLFLRRRAVVKEPLLPPEDDTRDNVYYYDEEGGGEEDQDFDLSQLHRGLDARPEVTRNDVAPTLMSVPRYLPRPANPDEIGNFIDENLKAADTDPTAPPYDSLLVFDYEGSGSEAASLSSLNSSESDKDQDYDYLNEWGNRFKKLADMYGGGEDD
notes: E-cadherin, human, wild type, expressed from a transduced vector in CHO cells; also called WT hE-cad; WT hEcadherin; source: CHO cells (ATCC CCL-61), stably transduced, in fixed cells
For B1, the fold increase of PLA blobs per cell with 2% DMSO against untreated WT [1] was 2.3 fold, the fold increase of PLA blobs per cell with 2% DMSO against untreated WT [2] was 4.2 fold and the “fold increase of PLA blobs per cell with 2% DMSO against untreated WT” value [3] was 1.8 fold.
